Patent US6284871

Tests used:
[1] = target: purified human Factor IXa (human) (UniProt P00740)
[2] = target: non-activated Factor IX (Homo sapiens (Human)) (UniProt P00740); experiment: equilibrium binding in solution (method of Friguet): 30 nM Factor IX with varying peptide, non-bound Factor IX measured on immobilized peptide
[3] = target: purified human Factor IXa (human) (UniProt P00740); remark: listed apart in the source
[4] = target: non-activated Factor IX (Homo sapiens (Human)) (UniProt P00740)
[5] = target: purified human Factor IXa (human) (UniProt P00740); experiment: equilibrium binding in solution (method of Friguet): 30 nM Factor IXa with varying peptide, non-bound Factor IXa measured on immobilized peptide

Anticoagulant activity in the APTT test (prolongation of the clotting time in seconds) [1] [s] | Kd [2] [µM] | half-maximal inhibition in the APTT test [3] [mM] | half-maximal inhibition in the APTT test [4] [mM] | Kd [5] [µM] | Molecule
8.6 | – | – | – | – | complete Factor VIII light chain (residues 1649-2332) (from UniProt P00451)
– | 230 | 0.3 | 0.3 | 200 | KNFVKPNETKTYFWK [compound … (SEQ ID NO: 3), synthetic peptide of Factor VIII A3-domain residues 1804-1818]
